In one series the target is T1, P-IR(Tyr1158) (Homo sapiens, UniProt P06213).
T1 construct: expressed in transfected cells; host or cells: rat L6 myoblast cells (L6hIR, generated at Novo Nordisk)
As to the kind of experiment: Activation of IR in L6hIR cells in vitro, sandwich ELISA. The format is cell-based. The note with it: ligands 0-1000 nM for 30 min, 0.1% human serum albumin, three replicates.

A further series relates to L6hIR cells. As to the kind of experiment: Mitogenic potency from thymidine-incorporation in L6hIR cells. The conditions noted are these: weighted mean [95% CI], at least three independent experiments. The series is classed as cell-based, rat.
The subject of a further series is H4IIE cells. As to the kind of experiment: Mitogenic potency from thymidine-incorporation in H4IIE cells. The format is cell-based, rat. The conditions noted are these: weighted mean [95% CI], at least three independent experiments.
For series [1], the system named is IR and IGF-1R in L6hIR xenografts. As to the kind of experiment: Acute activation of IR and IGF-1R in L6hIR xenografts in vivo. The note with it: experiment A; 300 nmol/kg s.c., single treatment, euthanized 20 min later; n = 7-8. Further details: species or system mouse.
Procedure: Male BALB/c nude mice (CAnN.Cg-Foxn1 nu/Crl) were purchased from Charles River (Charles River Laboratories Germany, Sulzfeld, Germany) at age of seven weeks and housed five mice per cage in individually ventilated Techniplast GR 900 Seal Safe Plus cages, with unrestricted access to a complete pelleted rodent diet (Altromin 1324, Brogården, Hørsholm, Denmark) and tap water (non-chlorinated, non-acidified). In the animal room the temperature was 18–24 °C, with relative humidity at 30–70%, air change 8–15 times/h and a light-dark cycle of 12/12 h. All mice were acclimatized for 10 days before experiments were started. On day 0, all mice were injected s.c. in the right flank with 2.5 million L6hIR (six experiments) or L6 cells (one experiment), suspended in 0.1 ml PBS. On the same day treatment with vehicle or test compounds was started and continued either once or twice daily until the end of the experiment (Supplementary Table S5). […]
L6hIR cell xenograft samples were lysed in cell extraction buffer as described previously[10]. Protein concentration of cell and xenograft lysates was assessed with Pierce BCA protein assay kit (Thermo Fisher Scientific, Hvidovre, Denmark), according to the manufacturer’s instructions.
Series [2] can be described thus: Pharmacokinetics after s.c. injection in mice. The series is classed as in vivo. The note with it: mouse; for t1/2 / Cmax: mean [95% CI]; for t1/2 / tmax / Cmax: n = 15; for tmax: median; for Cmax: sparse sampling 0-240 min, population PK and non-compartment analysis.
Procedure: Pharmacokinetic (PK) parameters were estimated from the two experiments with sparse sampling (three blood samples per mouse) for 0–240 min. Initially, population PK models[25] for each compound was developed in Nonmem (Icon, Dublin, Ireland) and approximately 60 individual post-hoc concentration-time data points per mouse was subjected to non-compartment analysis.
Series [3] in a line: Lowering of blood glucose in mice with L6hIR xenografts. The format is in vivo, mouse. The conditions noted are these: 300 or 600 nmol/kg s.c., experiment D.
Procedure: Blood glucose and plasma concentrations of test compounds and endogenous mouse insulin were assessed as described previously[10].
The mark [4] stands for this setting: s.c., range over doses of 300 and 600 nmol/kg of HI and IX10.

T1 sequence (P06213 28-1370 isoform P06213-2 limits assumed): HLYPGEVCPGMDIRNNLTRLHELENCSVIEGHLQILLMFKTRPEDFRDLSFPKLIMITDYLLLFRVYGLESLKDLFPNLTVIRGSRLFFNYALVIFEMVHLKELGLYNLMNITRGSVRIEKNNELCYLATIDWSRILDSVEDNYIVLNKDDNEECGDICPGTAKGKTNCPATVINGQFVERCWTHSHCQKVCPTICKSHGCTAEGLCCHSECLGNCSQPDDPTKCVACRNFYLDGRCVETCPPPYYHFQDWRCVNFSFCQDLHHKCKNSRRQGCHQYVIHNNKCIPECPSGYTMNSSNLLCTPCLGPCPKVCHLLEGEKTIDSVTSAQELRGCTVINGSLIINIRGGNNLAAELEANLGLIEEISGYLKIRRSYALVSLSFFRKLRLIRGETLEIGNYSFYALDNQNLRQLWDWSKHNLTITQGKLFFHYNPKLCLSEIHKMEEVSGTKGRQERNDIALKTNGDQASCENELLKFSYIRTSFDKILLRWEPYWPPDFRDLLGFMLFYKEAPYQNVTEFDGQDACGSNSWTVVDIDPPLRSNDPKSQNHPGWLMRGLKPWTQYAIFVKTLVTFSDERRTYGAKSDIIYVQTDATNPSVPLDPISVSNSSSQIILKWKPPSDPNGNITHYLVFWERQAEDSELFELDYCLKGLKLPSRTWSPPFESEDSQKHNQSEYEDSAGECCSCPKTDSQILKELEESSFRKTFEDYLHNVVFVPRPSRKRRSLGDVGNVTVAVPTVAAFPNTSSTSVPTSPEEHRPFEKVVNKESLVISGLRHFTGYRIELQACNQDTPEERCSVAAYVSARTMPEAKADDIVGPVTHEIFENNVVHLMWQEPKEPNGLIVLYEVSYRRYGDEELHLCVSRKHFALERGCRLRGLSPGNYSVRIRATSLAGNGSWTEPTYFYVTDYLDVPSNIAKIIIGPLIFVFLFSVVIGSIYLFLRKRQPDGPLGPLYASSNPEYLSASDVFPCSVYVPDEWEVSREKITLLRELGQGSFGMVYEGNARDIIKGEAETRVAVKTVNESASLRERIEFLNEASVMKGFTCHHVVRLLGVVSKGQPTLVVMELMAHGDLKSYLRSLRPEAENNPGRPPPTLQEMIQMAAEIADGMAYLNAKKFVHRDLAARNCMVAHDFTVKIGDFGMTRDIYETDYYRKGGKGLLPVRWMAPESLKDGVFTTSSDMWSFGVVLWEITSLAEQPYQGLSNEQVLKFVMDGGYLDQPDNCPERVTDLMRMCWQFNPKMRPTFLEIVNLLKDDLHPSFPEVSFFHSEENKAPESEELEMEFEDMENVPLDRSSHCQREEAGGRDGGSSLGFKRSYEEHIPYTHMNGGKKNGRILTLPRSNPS
T1 sequence (P06213 763-1382 partner limits assumed): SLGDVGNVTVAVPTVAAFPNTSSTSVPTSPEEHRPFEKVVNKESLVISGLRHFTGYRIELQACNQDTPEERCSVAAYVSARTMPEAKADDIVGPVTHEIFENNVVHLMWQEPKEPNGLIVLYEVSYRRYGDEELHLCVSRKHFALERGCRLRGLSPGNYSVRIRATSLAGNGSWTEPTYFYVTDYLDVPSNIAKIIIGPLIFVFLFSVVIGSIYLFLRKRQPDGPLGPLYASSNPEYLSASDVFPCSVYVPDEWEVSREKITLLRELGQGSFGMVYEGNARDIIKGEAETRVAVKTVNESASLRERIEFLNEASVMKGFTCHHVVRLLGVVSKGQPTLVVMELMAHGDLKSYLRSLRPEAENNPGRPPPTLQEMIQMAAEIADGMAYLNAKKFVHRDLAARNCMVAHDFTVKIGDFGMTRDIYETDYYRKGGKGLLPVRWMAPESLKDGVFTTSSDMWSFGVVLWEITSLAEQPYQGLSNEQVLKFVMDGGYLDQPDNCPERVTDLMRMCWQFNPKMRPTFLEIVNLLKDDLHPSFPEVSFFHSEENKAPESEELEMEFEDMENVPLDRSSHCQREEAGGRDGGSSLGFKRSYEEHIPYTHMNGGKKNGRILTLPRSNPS
Procedure for H4IIE cells: (§1) Fitting of dose-response curves describing thymidine-incorporation in vitro and activation of IR and IGF-1R, including calculation of EC50 values, were conducted with GraphPad Prism (GraphPad Software Inc., La Jolla, CA, USA).
H4IIE cells (ATCC, Manassas, VA, USA) were cultured in minimum essential medium (MEM) (Gibco) supplemented with 10% (v/v) FBS, 100 µg/ml penicillin and 100 U/ml streptomycin, 1% (v/v) MEM non-essential amino acids and 1% (v/v) pyruvate (all from Gibco).
Procedure for P-IR(Tyr1158): L6hIR cells were seeded in 12-well plates and grown until 90–100% confluence in DMEM (Gibco, Invitrogen, Carlsbad, CA, USA). Cells were stimulated with increasing concentrations of ligands (0–1000 nM) for 30 min in DMEM (Gibco) medium containing 0.1% human serum albumin. Subsequently, cells were washed three times in ice-cold phosphate buffered saline (PBS) and snap-frozen by pouring liquid nitrogen into the wells. Cells were lysed in 100 µL lysis buffer (cell extraction buffer from BioSource, Invitrogen, Carlsbad, CA, USA; supplemented with 1 mmol/l 4-(2-aminoethyl)benzenesulfonyl fluoride hydrochloride, and protease inhibitor cocktail from Sigma-Aldrich).
as §1

As a reminder, the EC50 is the concentration that produces a half-maximal response. As to “IGF-1: human IGF-1, reference ligand in receptor activation assays”, the EC50 with P-IR(Tyr1158) came to 25.8 nM.
Consider human insulin [HI], for which the “mitogenic potency L6hIR cells (% of HI)” value in the series on L6hIR cells was 100 % of HI. In the series with H4IIE cells, the “mitogenic potency H4IIE cells (% of HI)” value was 100 % of HI. In addition, the “Activation of IR and IGF-1R in L6hIR xenografts in vivo” value in series [1] was “acute activation of IR and IGF-1R”. Also, in series [2] (300 nmol/kg s.c., experiment H), the t1/2 was 96 [85 ; 107] min, the tmax was 11 min and the Cmax was 725.7 [654.0 ; 797.4] nmol/l. For the same substance, in series [2] (600 nmol/kg s.c., experiment I), the t1/2 was 52 [48 ; 56] min, the tmax was found to be 17 min and the Cmax was 812.5 [761.7 ; 863.4] nmol/l. Further, in series [2] (setting [4]), the elimination half-life was 60 to 90 min, the maximum plasma concentration was in the range of 500 to 850 nmol/L and the “time of maximum plasma concentration after s.c. injection” value was in the range of 11 to 17 min. For the same substance, the “Duration of decreased blood glucose” value in series [3] was in the range of 4 to 6 h.

The values are drawn from paper PMC7190841 (Scientific Reports, 2020).
